Experimental data as given in patent publication US20060148057A1, “Thioredoxin mutants and uses thereof” (priority 2002, published 2006).

B1: thioredoxin (protein)
chain: MVKQIESKTAFQEALDAAGDKLVVVDFSATWCGPCKMIKPFFHSLSEKYSNVIFLEVDVDDCQDVASECEVKCMPTFQFFKKGQKVGEFSGANKEKLEATINELV
modifications: Flag tag or GST fusion
notes: Flag-tagged or GST fusion
B2: Trx-C35S: C35S single mutant of Trx at the catalytic site, SEQ ID NO:3 (protein)
chain: MVKQIESKTAFQEALDAAGDKLVVVDFSATWCGPSKMIKPFFHSLSEKYSNVIFLEVDVDDCQDVASECEVKCMPTFQFFKKGQKVGEFSGANKEKLEATINELV
B3: Trx-C32S: C32S single mutant of Trx at the catalytic site, SEQ ID NO:2 (protein)
chain: MVKQIESKTAFQEALDAAGDKLVVVDFSATWSGPCKMIKPFFHSLSEKYSNVIFLEVDVDDCQDVASECEVKCMPTFQFFKKGQKVGEFSGANKEKLEATINELV

Columns and labels:
Akt = test: ASK1-induced inhibition of IGF1-induced Akt phosphorylation in EC (Western blot p-Ser473); assay type: cell-based, Bovine; conditions: co-expression with ASK1, IGF1 10 ng/ml for 10 min
Experimental: EC were transfected with plasmids as indicated: control vector (VC), HA-Akt, HA-ASK1 with different Trx constructs. Cells were treated with IGF1 (10 ng/ml for 10 min). Akt hosphorylation was examined by western blot with phospho-Akt (Ser473)-specific antibody (p-Akt). Akt and ASK1 expression were determined by western blot with anti-HA.
To determine a role of ASK1 in ROS/TNF-induced IR (impairment of insulin/IGF1 signaling) in EC, the effects of ASK1 activation on IGF1-induced phosphorylation of IRS-1, Akt and eNOS activity were examined. IGF-1 was chosen because cultured EC express IGF1 receptor at higher level than that of insulin receptor. BAEC were transfected with VC or ASK1 expression construct, cells were treated with IGF1 (10 ng/ml) for indicated time. SOCS3 was used as a control which has been shown as a suppressor of IRS-1 activation. Activation (tyrosine phosphorylation) of IRS-1 was determined by IP/Western blot with anti-phosphotyrosine. Akt phosphorylation at Ser-473, a hallmarker for Atk activity was determined by Western blot with p-Ser473-specific antibody. The eNOS enzymatic activity was also by an enzymatic assay based on the conversion of 3H-L-arginine to 3H-citrulline (Calbiochem, Nitric Oxide Synthase Assay Kit).
To determine if Trx protects ASK1-induced inhibition on IGF1 signaling, Trx and ASK1 were coexpressed as in the above experiments. […] To test this, the effects of TZDs (insulin-sensitizers) and statins on ASK1 activity were tested. […] Inhibition of ASK1 may due to their anti-oxidant activities of these drugs which may be indirect by inhibiting TNF-dependent generation of ROS.

BAEC = test: GFP co-transfection killing assay, ASK1-induced EC death; assay type: cell-based, Bovine; conditions: for inhibitory effect on ASK1-induced apoptosis under TNF treatment: TNF 10 ng/ml
Experimental: Trx inhibits ASK1-induced JNK activation and caspase 3 activity. BAEC were co-transfected with ASK1 and Trx constructs in 1:1 ratio as indicated: control vector alone (Ctrl), ASK1 with VC, Trx-WT, Trx-CS, Trx-C32S or Trx-C35S. 24 h post-transfection, cell lysates were used to examine JNK and caspase 3 activity. […] JNK activity was measured by an in vitro kinase assay GST-c-Jun as a substrate. Trx expression was determined by Western blot anti-Flag. […] Caspase 3 activity was measured by Sigma's Caspase 3 Fluorometric Assay Kit in the absence or presence of caspase 3 inhibitor Ac-DEVD-CHO. Assay was performed as duplicates. Caspase 3 activities were normalized with the Ctrl group (as zero). Data are presented from mean of two independent experiments. […] 6-well BAEC were co-transfected with a GFP expression construct and ASK1/Trx constructs as indicated (1 μg GFP, 1 μg ASK1, 1 μg Trx, total DNA was kept to 3 μg by adding VC): control vector alone (Ctrl), ASK1 with VC, Trx-WT, Trx-CS, Trx-C32S or Trx-C35S. Cells were cultured in the presence or absence of TNF (10 ng/ml). 48 h after transfection, GFP-positive cells were counted as survival cells. The survival rate is shown (Ctrl group as 100%). Data are presented from mean of four independent experiments. […] BAEC were transfetced as in FIG. 6C. 6-well BAEC were transfetced with GFP (1 μg) and Trx -expressing construct (1 μg each) as indicated. 24 h after transfection, cells were either left untreated or treated with TNF (10 ng/ml) plus CHX (10 μg/ml) for 24 h. GFP-positive cells were counted as survival cells. […] Data are presented from mean of four independent experiments.
Quantitation of cell killing: Cell killing assay was performed as described previously with a modification (Slowik M R et al. Evidence that tumor necrosis factor triggers apoptosis in human endothelial cells by interleukin-1-converting enzyme-like protease- dependent and -independent pathways. Lab Invest. 77:257-67 (1997)). EC were transfected with a combination of GFP reporter plasmid and the control vector or experimental expression plasmids for ASK1 and Trx at 1:1 ratio as indicated. GFP-positive cells were visualized under a fluorescence microscope and counted as number of survival cells.
ASK1-induced EC death was measured by a GFP co-transfection killing assay as previously described with minor modifications (Slowik M R Evidence that tumor necrosis factor triggers apoptosis in human endothelial cells by interleukin-1-converting enzyme-like protease- dependent and -independent pathways. Lab Invest. 77:257-67 (1997)). Overexpression of ASK1 in EC (BAEC or HUVEC) induced 60% cell death at 48 h post-transfection, i.e., 40% of GFP-positive (survival) EC compared to the control cells (Ctrl as 100% survival, FIG. 6C).

| Molecule | ASK1-induced reduction of Akt phosphorylation (Akt) | ASK1-ΔN-induced apoptosis (BAEC) | inhibitory effect on ASK1-induced apoptosis under TNF treatment (BAEC) |
| --- | --- | --- | --- |
| B1 | prevents | did not inhibit | diminished the inhibitory effect |
| B2 | prevents | – | retained their inhibitory effects |
| B3 | prevents | – | retained their inhibitory effects |
